Assay results published in the supplement of paper PMC9170038.

Test system: MS2 coat protein
Experiment: apparent KD of MS2 coat protein; designed switch direction (-1 OFF switch, 1 ON switch): -1; higher = weaker reporter binding
Outline: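 Stalled E. coli RNA polymerase transcribed designed RNA switches on Illumina chips, which were then titrated with SNAP-549-labelled MS2 coat protein, doubling from 0.7 or 1.5 nM to 3 µM. Steps lasted from 0.8–1.5 h at the lowest concentration to 10–20 min at the highest. The apparent KD is each design's median over clusters of curve-fitted normalised fluorescence.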

[1] = Eterna round: R95, input ligand: FMN 200 uM
[2] = Eterna round: R95, input ligand: microRNA oligo, concentration not stated
[3] = Eterna round: R95, input ligand: none
[4] = input ligand: microRNA oligo, concentration not stated

Sequence	apparent KD of MS2 coat protein (input ligand: FMN 200 uM)	apparent KD of MS2 coat protein (input ligand: none)	apparent KD of MS2 coat protein [2]	also measured
UCCGUACAUGAGGAUCACCCAUGUCAGGAUAUGCAGACCGGCCGCCAGCGACCGGCCCGCAGAAGGGACAUAGA [EX1 B.4] (Eterna round: R97, puzzle: Exclusion 1)	140 nM	30.7 nM		
UCCGUACAUGAGGAUCACCCAUGUCAGGAUAUGGCUUUUAGCGUAGACGCGCAAGAGGCCAGAAGGGACUUUUG [Eternabot (L2) Solution 6] (Eterna round: R97, puzzle: Exclusion 1)	30.5 nM	27.7 nM		
UCCUCACAUGAGGAUCACCCAUGUCAGGAUAUAAGAAACGCGGAAGGCAGCCGCAAAAUUAGAAGGGACAUUAA [EX1 A.25] (Eterna round: R97, puzzle: Exclusion 1)	39.7 nM	20.6 nM		
UCCUCACAUGAGGAUCACCCAUGUCAGGAUAUACAAGAAAAUAACCGGAAAGACCGGAGUAGAAGGGACAUAAG [Beleonrala] (puzzle: Exclusion 1)			16.1 nM	apparent KD of MS2 coat protein [1]: 31.6 nM; apparent KD of MS2 coat protein [3]: 16.1 nM
UCCUCACAUGAGGAUCACCCAUGUCAGGAUAUGUACCCGAUCAAGUCAGAGAUCGGAAGCAGAAGGGACUGCGG [Larebeti] (puzzle: Exclusion 1)			70.7 nM	apparent KD of MS2 coat protein [1]: 26.5 nM; apparent KD of MS2 coat protein [3]: 59.2 nM
UCCUCACCUUAGGAUAUCUUGACGGGACUCUCAGGAGAAGGAAGGACAUGAGGAUCACCCAUGUUCAAAACAAC [EX6 B.18] (Eterna round: R97, puzzle: Exclusion 6)	50.2 nM	23.2 nM		
UCCUGACAUGAGGAUCACCCAUGUUAGGAUAUAACAUUUGACGCGACAGUGUGGAGUGUUAGAAGGGAUGUGGG [-29.5, -26.8 kcal, A 27%] (Eterna round: R97, puzzle: Exclusion 1)	20.5 nM	17.4 nM		
UCCUGCUGGCGAGGAUAUCCUGUGCGGUUCCGGCUCGUGUCUGUUACAUGAGGAUCACCCAUGUGGGAGAAGGUGUCUGUGGCC [Design 98] (Eterna round: R96, puzzle: Exclusion NG 2)	18.6 nM	20.5 nM		apparent KD of MS2 coat protein [4]: 14.1 nM
UCCUGGCGAGGAUAUACAAUGUUAUUCGCGUGUAGUUGGAAACAUGAGGAUCACCCAUGUAGAAGGUGCUACUG [JR_Ex2_Sub025] (Eterna round: R97, puzzle: Exclusion 2)	27.4 nM	23.8 nM		
UCCUGGUCAGGAUAUUGCAGGUCGUACGCUCUGAGUCUAGGCAAGAAGGGACAUGAGGAUCACCCAUGUGGGCG [Eternabot (L1) Solution 4] (Eterna round: R97, puzzle: Exclusion 4)	406 nM	187 nM		
UCCUUACAUGAGGAUCACCCAUGUCAGGAUAUCUCCACACUGCGCUUGCGCAGUGUAUAGAGAAGGGACAGGCU [JL ViennaUCT Aner mod 6] (puzzle: Exclusion 1)			26.5 nM	apparent KD of MS2 coat protein [1]: 33.4 nM; apparent KD of MS2 coat protein [3]: 35.8 nM
UCCUUACUGGUCAGGAUAUACAUUCGCUACUCCUUGUAGAAGGGACAUGAGGAUCACCCAUGUACGUUACAUCC [alecazam54b] (Eterna round: R97, puzzle: Brourd's mod of Exclusion 4)	22.9 nM	21.6 nM		
UCCUUACUGGUCAGGAUAUACAUUCGCUACUGGGUGUAGAAGGGACAUGAGGAUCACCCAUGUACGUUACAUCC [alecazam54e] (Eterna round: R97, puzzle: Brourd's mod of Exclusion 4)	19.3 nM	23.8 nM		
UCGACUACAGUAGGAUAUGUAGGAUAUGUGGUUGAGGAUCACCCAACCACUUCAACGACAGAAGGACAGAAGGACUGACAACGU [pwkr exNG2 2xFMN 1xF5.3] (Eterna round: R96, puzzle: Exclusion NG 2)	16.8 nM	16.5 nM		apparent KD of MS2 coat protein [4]: 14.8 nM
UCGACUAGAGGAUAUACAUGAGGAUCACCCAUGUUGGUAUCACGAAUUCAACCAACUCGUAGAAGGCUGACGAC [Eternabot (L1) Solution 98] (Eterna round: R97, puzzle: Exclusion 3)	24.2 nM	24.9 nM		
UCGAGGUCAGGAUAUACAUGAGGAUCACCCAUGUGGAAGUAAGGUAGGAGAAGAGUAGGUAGAAGGGACGAGGG [JR_Exclu3_Sub051] (puzzle: Exclusion 3)			37.9 nM	apparent KD of MS2 coat protein [1]: 38.2 nM; apparent KD of MS2 coat protein [3]: 46.3 nM
UCGAGGUCAGGAUAUACAUGAGGAUCACCCAUGUGGAGAUAAGGUAGGAAAAGAGUAGGUAGAAGGGACGAGAG [JR_Exclu3_Sub048] (puzzle: Exclusion 3)			40.6 nM	apparent KD of MS2 coat protein [1]: 61.4 nM; apparent KD of MS2 coat protein [3]: 57.6 nM

Sequence	apparent KD of MS2 coat protein (input ligand: FMN 200 uM)	apparent KD of MS2 coat protein (input ligand: none)	apparent KD of MS2 coat protein [2]	also measured
UCGAGGUCAGGAUAUACAUGAGGAUCACCCAUGUUGAGAGAAGGUAGGAAAAGAGUAGGUAGAAGGGACGAGAG [JR_Exclu3_Sub046] (puzzle: Exclusion 3)			26.1 nM	
UCGAUGUGAGGAUAUAUUUUUAUUAGUCCUUAUGUUUUAUAACUUGAGGAUCACCCAAGUAGAAGGCGCGACGU [JR_Ex2_Sub061] (Eterna round: R97, puzzle: Exclusion 2)	32.6 nM	34.6 nM		
UCGAUGUGAGGAUAUAUUUUUAUUAGUCCUUAUGUUUUAUAACUUGAGGAUCACCCAAGUAGAAGGCGCUACGU [JR_Ex2_Sub062] (Eterna round: R97, puzzle: Exclusion 2)	25.5 nM	40.9 nM		
UCGCAAGCCAUUCCUACUCACAUGAGGAUCACCCAUGUCCUCAGGUUCGUCGUGUCUCUCUGCAAACACUUGCAGAG [Eternabot (L2) Solution 7] (Eterna round: R97, puzzle: Sensor, turn-off variant 1)	145 nM	762 nM		
UCGCAGGGAGGAUAUACACACAGGUGACGCAGCCCAAAAGAACAUGAGGAUCACCCAUGUAGAAGGCUCAAUAU [Eternabot (Original) Solution 2] (Eterna round: R97, puzzle: Exclusion 2)	51.5 nM	31.2 nM		
UCGCUGCGAGGAUAUACAUGAGGAUCACCCAUGUACGGGUCCGGGUCUAAGUUGAUAAGUAGAAGGCGCAGUGA [JL Laongeedie mod 12] (puzzle: Exclusion 3)			114 nM	
UCGCUGCGAGGAUAUACAUGAGGAUCACCCAUGUGCGGGUCCGGGUUUUCGUCCAUUAGUAGAAGGCGCAGUGA [JL Laongeedie mod 3] (puzzle: Exclusion 3)			269 nM	
UCGCUGCGAGGAUAUACGUUUGCGCGCUUUCGUUUGCGCGUACAUGAGGAUCACCCAUGUAGAAGGCGCGCUGC [Apr-15 SS2-7] (puzzle: Exclusion 2)			13.1 nM	
UCGGCCGCCGUGAGGAUAUGCCCGCGCGCCCGCGGGCAGAAGGCACAUGAGGAUCACCCAUGUCCCGCGGCACC [salish99_bmx4_r4_125] (Eterna round: R97, puzzle: Brourd's mod of Exclusion 4)	15.1 nM	14.1 nM		
UCGGCGCGAGGAUAUACGUUUGCGCGUUUUCGUUUUCGCGUACAUGAGGAUCACCCAUGUAGAAGGCGCGCCGC [Apr-15 SS2-15] (puzzle: Exclusion 2)			14 nM	
UCGGCGCGAGGAUAUACGUUUGCUCUUUUUCGUUUUUGUGUACAUGAGGAUCACCCAUGUAGAAGGCGCGCCGC [Apr-15 SS2-19] (Eterna round: R96, puzzle: Exclusion 2)	80.9 nM	31.5 nM		apparent KD of MS2 coat protein [4]: 17.3 nM
UCGGCGCGAGGAUAUACGUUUGCUCUUUUUCGUUUUUGUGUACAUGAGGAUCACCCAUGUAGAAGGCGCGCCGC [Apr-15 SS2-19] (puzzle: Exclusion 2)			17 nM	
UCGGCGCGAGGAUAUACGUUUGCUUUUUUGGGUCGUUGCGUACAUGAGGAUCACCCAUGUAGAAGGCGCGCCGC [Apr-15 SS2-25] (Eterna round: R96, puzzle: Exclusion 2)	145 nM	31.8 nM		apparent KD of MS2 coat protein [4]: 25.9 nM
UCGGCGCGAGGAUAUACGUUUGCUUUUUUGGGUCGUUGCGUACAUGAGGAUCACCCAUGUAGAAGGCGCGCCGC [Apr-15 SS2-25] (puzzle: Exclusion 2)			24.1 nM	
UCGGCGCGAGGAUAUGCGGUUCCUCCCUAGGGCCGGAGCGUACAUGAGGAUCACCCAUGUAGAAGGCGCGCCGC [Apr-15 SS2-35] (puzzle: Exclusion 2)			11.2 nM	
UCGGCGCGAGGAUAUGCGGUUGCUCCCUAGGGUCGGAGCGUACAUGAGGAUCACCCAUGUAGAAGGCGCGCCGC [Apr-15 SS2-34] (puzzle: Exclusion 2)			12.4 nM	
UCGGCGCGAGGAUAUGCGGUUGCUUGGUAGGGUCGUGGCGUACAUGAGGAUCACCCAUGUAGAAGGCGCGCCGC [Apr-15 SS2-32*] (puzzle: Exclusion 2)			15.5 nM	
